These results are taken from patent US8846861 (dated 2014).

For assay [1], the target named is ScFv anti CEA-CPG2 fusion protein (Pseudomonas, UniProt P06621 23-415). The assay can be described thus: cell-based or functional assay.
Assay [2] concerns the target T1, carcino-embryonic antigen (CEA) (human, UniProt P06731 35-685).
T1 construct: whole, on cells; The legends print the cell line as CCI-229; also called surface protein CEA; CEA surface antigen
T1 sequence (looked up): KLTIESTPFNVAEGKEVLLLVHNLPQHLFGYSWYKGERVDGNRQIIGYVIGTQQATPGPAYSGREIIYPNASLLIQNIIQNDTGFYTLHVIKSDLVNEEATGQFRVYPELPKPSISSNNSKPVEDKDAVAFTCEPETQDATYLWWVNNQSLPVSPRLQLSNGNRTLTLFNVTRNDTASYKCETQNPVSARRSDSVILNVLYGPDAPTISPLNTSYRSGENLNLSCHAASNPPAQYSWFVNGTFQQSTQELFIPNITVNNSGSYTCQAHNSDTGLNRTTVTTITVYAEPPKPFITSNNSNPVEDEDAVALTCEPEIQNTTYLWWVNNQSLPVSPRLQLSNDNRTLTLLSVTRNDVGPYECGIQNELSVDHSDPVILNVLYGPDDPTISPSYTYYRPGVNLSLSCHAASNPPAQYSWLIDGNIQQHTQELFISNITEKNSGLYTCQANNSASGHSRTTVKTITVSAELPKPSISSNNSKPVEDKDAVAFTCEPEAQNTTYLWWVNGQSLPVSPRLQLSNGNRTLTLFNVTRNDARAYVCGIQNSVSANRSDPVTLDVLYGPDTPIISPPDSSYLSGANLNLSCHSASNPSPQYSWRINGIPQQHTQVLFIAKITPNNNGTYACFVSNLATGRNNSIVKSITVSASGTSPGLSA
Put plainly: flow cytometry on CCL 229 (LoVo) CEA expressing cells. The method, then: A study to look at antibodies generated in sheep to CEA and the ScFv anti CEA-CPG2 Fusion protein was carried out with analysis using flow cytometry. Measurement by Flow Cytometry of Binding Capability of scFv Anti-CEA-CPG2 Using CEA Expressing Cells. Materials: Cells Lines: CRL 1573—control cell line, CCL 229 (LoVo)—CEA expressing cell line Antibodies/Conjugates: CPG2-PE (Phycoerythrin), CPG2 100 U/ml 1:100 dilution of 100 U conjugated ScFv anti-CEA-CPG2-PE UCL, 40-50 U/ml, 0.71 mg/ml protein 2.5 µg/ml in buffer containing BSA Sheep anti-CEA-PE, CF 1110-PE; Stock at 670 µg/ml. Mouse anti human CEA UCL at 3.9 mg/ml 2.5 µg/ml in buffer containing BSA Goat anti-Mouse-PE Southern Biotech 1050-09 L2806-XH69Z kappa chain specific at 0.25 mg/ml used at 1 µg/ml 4.5 ml polystyrene tubes, PBS azide, BSA, PBS+0.5% Formaldehyde (Polysciences #18814), Propidium Iodine (Orpegen at 100 mg/ml) Centrifuge Eppendorf 5810R set to 250G, 5 mins, 4° C. Coulter XL flow cytometer Method: Cultured cells were both used at 2×10^5 cells per tube, cells in tubes were prepared to contain the following 1. Nothing added, auto fluorescence tested 2. Propidium Iodine at a final concentration of 10 µg/ml 3. CPG2-PE 4. ScFv anti CEA-CPG2-PE 5. Sheep anti CEA-PE 6. Mouse anti CEA/anti Mouse-PE Cells were spun down and 100 µl of antibody solution was added to respective tube. […]

Non-standard residues stand in square brackets, D forms with d. No end group written: not given here. ANA = not defined here

In the case of [ANA]-Glu (reading uncertain; also: printed as ANA-Glu) [CP006], the “IC50, inhibition assay of CPG2 activity (methotrexate hydrolysis)” value in assay [1] was 88.5 µM.

B1: CPG2-PE (Phycoerythrin) (enzyme, Pseudomonas, UniProt P06621 23-415, looked up)
chain: ALAQKRDNVLFQAATDEQPAVIKTLEKLVNIETGTGDAEGIAAAGNFLEAELKNLGFTVTRSKSAGLVVGDNIVGKIKGRGGKNLLLMSHMDTVYLKGILAKAPFRVEGDKAYGPGIADDKGGNAVILHTLKLLKEYGVRDYGTITVLFNTDEEKGSFGSRDLIQEEAKLADYVLSFEPTSAGDEKLSLGTSGIAYVQVNITGKASHAGAAPELGVNALVEASDLVLRTMNIDDKAKNLRFNWTIAKAGNVSNIIPASATLNADVRYARNEDFDAAMKTLEERAQQKKLPEADVKVIVTRGRPAFNAGEGGKKLVDKAVAYYKEAGGTLGVEERTGGGTDAAYAALSGKPVIESLGLPGFGYHSDKAEYVDISAIPRRLYMAARLIMDLGAGK
modifications: conjugated to phycoerythrin (PE)
notes: PE-labelled enzyme without the scFv, used as a control in flow cytometry; also called CPG2 control; carboxypeptidase G2
As to B1, the binding result in assay [2] is reported as “no binding (tested: CPG2 100 U/ml 1:100 dilution)”.
